Laboratory results as given in article PMC11532958.

Columns and labels:
[1] = cell surface biotinylation, Western blot quantitation; conditions: glycan lost; control: wild type
[2] = domain-selective surface biotinylation of polarized cells; conditions: glycan lost; control: wild type

With “voltage-gated sodium channel β2 subunit: N42,66,74Q” the localisation_or_trafficking [1] was “decreases” and the “other: apical versus basolateral polarity of surface protein” value [2] was “no change”.
